Assay results: US20210230664

Tested on: dCas9 (SpCas9 D10A/H840A) D10A,H840A (Streptococcus pyogenes)
Conditions: nanochannel imaging; NEB Buffer 3, BSA, 37 C 60 min; about 16% of labels off-target; PAM not stated

In the case of “DUF1220 crRNA (with tracrRNA-ATTO647) ; linearized BAC DNA with DUF1220 repeats”, the activity (% target sites labeled) is reported as 86.
